These results are taken from US20220185881A1 (JIANGSU HENGRUI MEDICINE, published 2022).

In this assay the target is human Claudin 18.2 (human). Put plainly: cell-based or functional assay.

B1: h1901-11 (antibody, human IgG1, kappa, V domains shown)
VH: EVQLVESGGGLVQPGGSLRLSCAASGFTFSDYGIHWVRQAPGKGLEWIAYISRGSSTIYYADTVKGRFTISRDNAKNSLYLQMTSLRAEDTAVYYCARGGYDTRNAMDYWGQGTTVTVSS
VL: DIVMTQSPDSLAVSLGERATISCKSSQSLLNSGNQKNYLAWYQQKPGQPPKLLIYGASTRASGVPDRFSGSGSGTDFTLTISSLQAEDVAIYHCQNDLYYPLTFGQGTKLEIKR
As to B1, the “IC50 (ng/ml), ADCC effect (FcrR3A-V158-NFAT-RE-Jurkat effector cells, Bright-Glo), NUGC4 cells with high expression of Claudin 18.2” value stood at 26.2 ng/mL; the “IC50 (ng/ml), ADCC effect (FcrR3A-V158-NFAT-RE-Jurkat effector cells, Bright-Glo), NUGC4 cells with low expression of Claudin 18.2” value turned out to be 22.4 ng/mL; the “IC50 (ng/ml), ADCC effect (FcrR3A-V158-NFAT-RE-Jurkat effector cells, Bright-Glo), NUGC4 cells with medium expression of Claudin 18.2” value is 15.3 ng/mL.

B2: IMAB-362 (antibody, human IgG1, kappa, V domains shown)
VH: QVQLQQPGAELVRPGASVKLSCKASGYTFTSYWINWVKQRPGQGLEWIGNIYPSDSYTNYNQKFKDKATLTVDKSSSTAYMQLSSPTSEDSAVYYCTRSWRGNSFDYWGQGTTLTVSS
VL: DIVMTQSPSSLTVTAGEKVTMSCKSSQSLLNSGNQKNYLTWYQQKPGQPPKLLIYWASTRESGVPDRFTGSGSGTDFTLTISSVQAEDLAVYYCQNDYSYPFTFGSGTKLEIKR
Regarding B2, the “IC50 (ng/ml), ADCC effect (FcrR3A-V158-NFAT-RE-Jurkat effector cells, Bright-Glo), NUGC4 cells with high expression of Claudin 18.2” value was determined as 133 ng/mL; the “IC50 (ng/ml), ADCC effect (FcrR3A-V158-NFAT-RE-Jurkat effector cells, Bright-Glo), NUGC4 cells with low expression of Claudin 18.2” value was found to be 183 ng/mL; the “IC50 (ng/ml), ADCC effect (FcrR3A-V158-NFAT-RE-Jurkat effector cells, Bright-Glo), NUGC4 cells with medium expression of Claudin 18.2” value is 210 ng/mL.
